The values below come from patent US20180222987A1.

For test [1], the target named is Macaca fascicularis CD3ε/δ-Fc fusion heterodimer (Macaca fascicularis) (UniProt Q95LI8). Briefly: SPR, CD3ε/δ-Fc captured, Fab analyte. On the technique in general: SPR reads the build-up and loss of mass on a sensor chip optically.
Test [2] shares this target. Briefly: SPR, cyno against human CD3ε/δ.
Test [3] deals with human CD123 on cells (human) (UniProt P26951). The test is described as follows: cell-based or functional assay.
human CD123 on cells (human), sequence (P26951 19-378): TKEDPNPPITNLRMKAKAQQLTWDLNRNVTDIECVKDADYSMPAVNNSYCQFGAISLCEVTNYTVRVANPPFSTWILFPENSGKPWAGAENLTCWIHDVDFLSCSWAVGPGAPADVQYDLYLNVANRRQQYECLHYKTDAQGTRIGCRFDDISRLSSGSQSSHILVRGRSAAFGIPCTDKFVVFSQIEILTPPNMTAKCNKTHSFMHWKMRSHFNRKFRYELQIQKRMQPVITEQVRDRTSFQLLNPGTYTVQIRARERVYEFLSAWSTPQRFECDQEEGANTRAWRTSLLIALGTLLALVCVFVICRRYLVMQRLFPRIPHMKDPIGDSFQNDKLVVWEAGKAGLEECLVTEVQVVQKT
Test [4] has the same target. The test is described as follows: flow cytometry, TF-1 cells, 3 µg antibody. In general terms: A flow cytometer gives signals particle by particle.
For test [5] the target is unchanged. The test is described as follows: flow cytometry, THP-1 cells, 3 µg antibody.
Test [6] has as its target Macaca fascicularis CD3ε/δ-Fc fusion heterodimer (Macaca fascicularis) (UniProt Q95LI8). Briefly: SPR, steady state.

Macaca fascicularis CD3ε/δ-Fc fusion heterodimer (Macaca fascicularis), sequence (chain, as listed by the source mutant, chain 1 of 2): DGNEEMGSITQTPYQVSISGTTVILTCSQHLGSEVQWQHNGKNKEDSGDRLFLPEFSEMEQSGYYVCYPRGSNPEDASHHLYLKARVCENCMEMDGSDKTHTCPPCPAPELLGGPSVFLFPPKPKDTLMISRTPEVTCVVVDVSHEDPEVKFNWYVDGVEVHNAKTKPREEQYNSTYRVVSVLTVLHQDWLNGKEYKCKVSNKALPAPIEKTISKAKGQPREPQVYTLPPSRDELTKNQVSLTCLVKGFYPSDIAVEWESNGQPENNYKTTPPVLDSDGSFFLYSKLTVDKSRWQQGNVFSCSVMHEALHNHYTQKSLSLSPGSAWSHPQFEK
Macaca fascicularis CD3ε/δ-Fc fusion heterodimer (Macaca fascicularis), sequence (Q95LI8 22-105, stated change not applied, chain 2 of 2): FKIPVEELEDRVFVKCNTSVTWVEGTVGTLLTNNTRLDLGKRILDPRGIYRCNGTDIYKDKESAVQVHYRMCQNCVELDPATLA

B1: 1E6 Fab (Fab, V domains shown)
VH: EVQLVETGGSLVQPGKSLKLTCATSGFTFSYAWMHWVRQSPDKQLQWVAQIKAKSNNYATYYAESVEGRFTISRDDSKSSVYLQMNSLKEEDTAIYYCRGVYYGLLGLDAWGQGTSVTVSS
VL: DVVMTQTPVSLSVRLGGQVSISCRSSQSLVHNNGNTYLSWFLQKPGQSPQLLIYKVSNRFSGISDRFSGSASGTDFTLKISRVEPDDLGVYYCGQGTHYPFTFGSGTKLEIK
In test [1], B1 had a Kd of 42 nM, a koff of 0.0042 s⁻¹ and a kon of 100000 M⁻¹ s⁻¹. Besides, the ratio KD(cy)/KD(hu) in test [2] was 1.

B2: 13H2 Fab (Fab, V domains shown)
VH: EEELVETGGSLVQPGKSLKLTCATSGFTFSNAWMHWVRQSPDKQLEWVAQIKAKSNNYATYYAESVKGRFTISRDDSKSSVYLQMNNLKEEDTAIYYCRYVHYGLAPMDAWGQGTSVTVSS
VL: DVVMTQTPVSLSVSLGGQVSISCRSSQSLVHNNGNTYLSWYLQKAGQSPQLLIYKVSNRFSGISDRFSGSGSGTDFILKISRVEPDDLGVFYCGQGTQYPFTFGAGTKLELK
In test [1], B2 came in with an equilibrium dissociation constant (Kd) of 32 nM, a koff of 0.0059 s⁻¹ and an on-rate constant (kon) of 180000 M⁻¹ s⁻¹. In test [2], the ratio KD(cy)/KD(hu) is 1.

B3: 5B1-G2 Fab (Fab, V domains shown)
VH: EVQVVETGGSLVQPGKSLKLTCATSGFSFSNAWMHWVRQSPEKQLEWVAQIKDKANNYATYYAESVKGRFTISRDDSKGSIYLQMNSLKEEDTAVYYCRGLYYGLFPSDYWGQGVMVTVSS
VL: DVVMTQTPVSLSVSLGGQVSISCRSSQSLVHNNGNTYLSWYLLKPGQSPQLLIYKVSNRFSGISDRFSGGGSGTDFTLKISRLEPDDLGIYYCGQGTQYPFTFGSGTKLEIK
Consider B3, for which, in test [1], the equilibrium dissociation constant (Kd) amounted to 4.3 nM, the koff worked out at 0.00015 s⁻¹ and the kon was found to be 34000 M⁻¹ s⁻¹. The ratio KD(cy)/KD(hu) in test [2] is 1.

B4: CODV-Fab 7G3 × OKT3 (bispecific antibody, part only; not given: OKT3 variable domains, full chains, V domains shown, part only)
VH: EVQLQQSGPELVKPGASVKMSCKASGYTFTDYYMKWVKQSHGKSLEWIGDIIPSNGATFYNQKFKGKATLTVDRSSSTAYMHLNSLTSEDSAVYYCTRSHLLRASWFAYWGQGTLVTVSA
VL: DFVMTQSPSSLTVTAGEKVTMSCKSSQSLLNSGNQKNYLTWYLQKPGQPPKLLIYWASTRESGVPDRFTGSGSGTDFTLTISSVQAEDLAVYYCQNDYSYPYTFGGGTKLEIK
B4: in test [3], the Activity EC50 (cytotoxic assay, THP-1 targets + primary human T cells) was 0.016 µg/mL.

B5: CODV-Fab BFX-3E3-D3 × CD3 (bispecific antibody, part only; not given: CD3 arm, linkers, constant domains, V domains shown, part only)
VH: QVQLQESGPGLVQPSQTLSLTCTVSGFSLTTYDVHWVRQPPGKGLEWMGRIQNGGITDYNSALKSRLIISRDTSKSQVFLKMNSVQTEDTAMYFCAKTGSYFYAFDHWGQGTLVTVSS
VL: QFVLTQPNSVSTNLGSTVKLSCKRNTGNIGSNYVNWYQQHEGRSPTTMIYRDDKRPDGVPDRFSGSIDRSSNSALLTINNVQTEDEADYFCQSYSSGINIIFGGGTKLTVL
Regarding B5, the % FITC positive cells in test [4] was determined as 31.6%; in test [5] it was 99%. The molecule further gave an EC50 cytotoxic assay (THP-1), geomean in test [3] of 0.0122 µg/mL.

B6: 12D2-E5 Fab (Fab, V domains shown)
VH: EVKLVESGGGLVQPGRSLRLSCAASGFNFYAYWMGWVRQAPGKGLEWIGEIKKDGTTINYTPSLKDRFTISRDNAQNTLYLQMTKLGSEDTALYYCAREERDGYFDYWGQGVMVTVSS
VL: QFVLTQPNSVSTNLGSTVKLSCKRSTGNIGSNYVNWYQQHEGRSPTTMIYRDDKRPDGVPDRFSGSIDRSSNSALLTINNVQTEDEADYFCQSYSSGIVFGGGTKLTVL
In test [6], B6 showed a Kd of 4.8 nM. The ratio KD(cy)/KD(hu) in test [2] was determined as 4.

As a reminder, the Kd is the free concentration of one partner at which half of the binding sites on the other are occupied at equilibrium, for simple one-to-one binding. A lower Kd goes with a tighter complex. By koff is commonly meant a measure of how fast the partners let go of each other. The low end stands for a long-lived complex, the high end for a short-lived complex. For orientation: kon means the second-order rate constant of association.
